The source of these data is patent publication US20260028400A1 (AIMED BIO, published 2026).

Substitutions are numbered along the chain they refer to.

The labels stand for the following.
B1: P015043 (antibody, V domains shown)
VH: EVQLLESGGGLVQPGGSLRLSCAASGFTFSNYDMSWVRQAPGKGLEWVSWISPGGSSIYYADSVKGRFTISRDNSKNTLYLQMNSLRAEDTAVYYCAKTLTRFDYWGQGTLVTVSS
VL: QSVLTQPPSASGTPGQRVTISCTGSSSNIGNNNVSWYQQLPGTAPKLLIYYDSHRPSGVPDRFSGSKSGTSASLAISGLRSEDEADYYCGTWDSSLSGYVFGGGTKLTVL
B2: P015042v1-5 (antibody, V domains shown)
VH: EVQLLESGGGLVQPGGSLRLSCAASGFTFSDYAMSWVRQAPGKGLEWVSVISSDGGSIYYADSVKGRFTISRDNSKNTLYLQMNSLRAEDTAVYYCAKDRSRDMEVDFDYWGQGTLVTVSS
VL: B1 VL with T23S, N31S, N33Y, S35T, Y51D, D52S, H54Q, S94Y, S97N, G98A
notes: Variant of P015042v1, tested as IgG; also called LC G95 substituted with A
B3: P015042v1-3 (antibody, V domains shown)
VH: B2 VH
VL: B1 VL with T23S, N31S, N33Y, S35T, Y51D, D52A, H54Q, S94Y, S97N
notes: Variant of P015042v1, tested as IgG; also called LC S51 substituted with A
B4: P015042v1-2 (antibody, V domains shown)
VH: B2 VH with G55K
VL: B1 VL with T23S, N31S, N33Y, S35T, Y51D, D52S, H54Q, S94Y, S97N
notes: Variant of P015042v1, tested as IgG; also called HC G55 substituted with K
B5: P015042v1-1 (antibody, V domains shown)
VH: B2 VH with G55V
VL: B1 VL with T23S, N31S, N33Y, S35T, Y51D, D52S, H54Q, S94Y, S97N
notes: Variant of P015042v1, tested as IgG; also called HC G55 substituted with V
B6: P015042v1-4 (antibody, V domains shown)
VH: B2 VH
VL: B1 VL with T23S, N31S, N33Y, S35T, Y51D, D52K, H54Q, S94Y, S97N
notes: Variant of P015042v1, tested as IgG; also called LC S51 substituted with K
B7: P015018 scFv (scFv, V domains shown)
VH: EVQLLESGGGLVQPDGSMRLICAASGFTFSSYAKHWVRQAPGKGLEWVSEIYTSGSTNYNPSLKSRFTISRDNSKNTLYLQMNSLRAEDTAVYYCARDTWWEGYFDLWGQGTLVTVSS
VL: EIVLTQSPGTLSLSPGERATLSCRASQSVSTYLAWYQQKPGQAPRLLIYDASSLESGIPDRFSGSGSGTDFTLTISRLEPEDFAVYYCQQSYNLPHTFGQGTKVEIK
notes: HA-tagged scFv
B8: P015004 scFv (scFv, V domains shown)
VH: EVQLLESGGGLVQPGGSLRLSCAASGFTFSDYAMAWVRQAPGKGLEWVSIIYPGDSETIYSPSFEGRFTISRDNSKNTLYLQMNSLRAEDTAVYYCARDTYWEGYFDLWGQGTLVTVSS
VL: B7 VL with S28G, V29I, T31N, S53N, S91Y, Y92A, H96Y
notes: HA-tagged scFv
B9: P015028 scFv (scFv, V domains shown)
VH: EVQLLESGGGMVQTGGSLRLSCAASGFTFSDYAMSWVRQAPGKGLEWVSAISYDNGNTYYADSVKGRFTISRDNSKNALYLQMNSLRAEDTAVYYCAKVNHRFDYWGQGTLVTVSS
VL: B1 VL with T23S, N31S, N33T, V34F, S35N, Y51A, D52N, G90A, T91S, S94A
notes: HA-tagged scFv
B10: P015016 scFv (scFv, V domains shown)
VH: EVQLLESGGGLVQTGGSLRLSCAASGFTFSDYAMSWVRQAPGKGLEWVSAISHGGSSKYYADSVKGRFTISRDNSKNTLYLQMNSLRAEDTAVYYCARVSLDFDYWGQGTLVAVSS
VL: B1 VL with T23S, N31S, N33T, V34F, S35N, Y51A, G90A, T91A, S94A, G98A
notes: HA-tagged scFv
B11: P015017 scFv (scFv, V domains shown)
VH: EVQLLESGGGLVQPGGSLRLSCAASGFTFSGYAMSWVRQAPGKGLEWVSVISPGSGSKYYADSVRGRFTVSRDNSKNTLYLQMNSLRAEDTAVYYCARYPLLRYAGALYSAYAMDVWGQGTLVTVSS
VL: B1 VL with T23S, N31S, N33Y, Y51A, D52N, T91A, S97N
notes: HA-tagged scFv
B12: P015004-vc-PAB-MMAE (antibody, IgG1, V domains shown)
VH: B8 VH
VL: B7 VL with S28G, V29I, T31N, S53N, S91Y, Y92A, H96Y
modifications: maleimidocaproyl-valine-citrulline-p-aminobenzyloxycarbonyl monomethyl auristatin E on cysteine sulfhydryls of reduced disulfides; positions not given; average 3.0 drugs per antibody
B13: P015043-vcPAB-MMAE (antibody, IgG1, V domains shown)
VH: B1 VH
VL: B1 VL
modifications: maleimidocaproyl-valine-citrulline-p-aminobenzyloxycarbonyl monomethyl auristatin E on cysteine sulfhydryls of reduced disulfides; positions not given; DAR 3.32

Sequence of ROR1 expressed on cell surface (Jeko-1 cell line, AMB-LC-0003T and AMB-LC-0002T patient-derived lung cancer … (Q01973 30-937): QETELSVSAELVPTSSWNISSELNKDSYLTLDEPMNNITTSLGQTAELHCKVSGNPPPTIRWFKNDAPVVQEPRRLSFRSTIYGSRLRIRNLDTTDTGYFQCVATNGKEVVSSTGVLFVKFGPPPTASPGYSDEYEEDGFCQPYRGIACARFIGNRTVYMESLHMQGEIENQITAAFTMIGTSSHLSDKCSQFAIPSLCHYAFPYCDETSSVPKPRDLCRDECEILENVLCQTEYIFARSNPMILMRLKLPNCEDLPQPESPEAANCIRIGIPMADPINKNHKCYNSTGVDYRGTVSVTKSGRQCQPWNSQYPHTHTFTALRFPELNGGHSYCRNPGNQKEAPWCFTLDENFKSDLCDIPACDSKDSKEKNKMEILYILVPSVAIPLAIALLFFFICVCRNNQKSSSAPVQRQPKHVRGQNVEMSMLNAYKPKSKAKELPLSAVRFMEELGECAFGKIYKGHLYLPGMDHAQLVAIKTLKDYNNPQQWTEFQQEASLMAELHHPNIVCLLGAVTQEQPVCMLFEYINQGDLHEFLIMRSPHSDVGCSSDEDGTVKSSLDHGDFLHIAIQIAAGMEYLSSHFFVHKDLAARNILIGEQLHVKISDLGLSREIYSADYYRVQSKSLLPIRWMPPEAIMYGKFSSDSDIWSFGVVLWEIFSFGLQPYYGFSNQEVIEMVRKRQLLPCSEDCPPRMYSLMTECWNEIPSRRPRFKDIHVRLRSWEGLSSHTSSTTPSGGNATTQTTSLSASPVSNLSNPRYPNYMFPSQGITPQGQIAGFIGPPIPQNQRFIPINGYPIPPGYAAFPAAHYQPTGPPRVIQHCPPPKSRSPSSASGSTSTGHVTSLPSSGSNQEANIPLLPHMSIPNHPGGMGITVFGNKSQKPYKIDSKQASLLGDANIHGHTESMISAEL

For the first assay, the target named is T1, Ig-like (human, UniProt Q01973).
T1 construct: Ig-like domain, His tag; also called Ig-like domain; human ROR1-immunoglobulin domain
T1 sequence (Q01973 39-151 limits assumed): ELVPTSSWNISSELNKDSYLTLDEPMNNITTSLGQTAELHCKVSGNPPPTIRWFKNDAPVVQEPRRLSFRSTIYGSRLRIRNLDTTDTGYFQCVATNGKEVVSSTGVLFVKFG
The assay can be described thus: ELISA, IgG on coated domain, OD450. On the procedure: ELISA was performed to analyze the binding domain using the IgG antibody of the selected clone.
After washing with PBST and distilled water, binding at room temperature for 1 hour using a goat-derived HRP-conjugated anti-human antibody (Invitrogen, 31482, Goat anti-Human IgG F(ab′)₂ Secondary Antibody, HRP) and then washing again using PBST and distilled water were performed. After color development by adding TMB substrate solution (Thermo Scientific, 34029, 1-Step™ Ultra TMB-ELISA Substrate Solution), the color reaction was stopped with stop solution (Invitrogen, SS04, ELISA Stop Solution), and the absorbance was measured at OD 450 nm. The anti-ROR1 antibody clone binding to each domain was analyzed through ELISA (FIG. 3).
On the technique in general: ELISA stands for enzyme-linked immunosorbent assay.
On to B1, for which the binding result is listed as “no binding (tested: 300 nM)”.

The target in a further assay is T2, mouse ROR1 (mouse, UniProt Q9Z139 30-403, limits assumed).
T2 construct: also called mouse ROR1 protein
T2 sequence (Q9Z139 30-403 limits assumed): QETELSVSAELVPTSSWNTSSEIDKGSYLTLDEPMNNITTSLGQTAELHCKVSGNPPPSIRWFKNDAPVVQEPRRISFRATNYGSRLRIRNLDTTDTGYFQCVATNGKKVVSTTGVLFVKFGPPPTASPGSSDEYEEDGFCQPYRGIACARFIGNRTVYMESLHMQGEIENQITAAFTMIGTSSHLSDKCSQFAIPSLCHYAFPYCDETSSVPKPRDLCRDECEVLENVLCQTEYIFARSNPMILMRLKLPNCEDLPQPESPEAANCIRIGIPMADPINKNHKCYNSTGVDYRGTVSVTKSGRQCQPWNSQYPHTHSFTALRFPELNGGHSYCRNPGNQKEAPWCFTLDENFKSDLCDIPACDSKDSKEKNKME
The assay can be described thus: SPR (Biacore 3000), mouse ROR1 on CM5 chip, IgG injected, 1:1 Langmuir. On the procedure: (§1) To more quantitatively analyze the binding ability of the anti-ROR1 antibody to ROR1, SPR (surface plasmon resonance) was performed. A Biacore 3000 device (GE Healthcare) was used. Using the amine coupling method, human ROR1 or mouse ROR1 was diluted with 10 mM sodium acetate, pH 4.5 and immobilized on a CM5 sensor chip (GE Healthcare) at 300 response units (RU). The activated portion remaining on the surface of the sensor chip was deactivated by adding 1 M ethanolamine-HCl (pH 8.5).
B2: the Kd stood at 0.0416 nM, the koff stood at 0.000106 s⁻¹ and the kon amounted to 2.54e+06 M⁻¹ s⁻¹.

B3 gave a Kd of 0.127 nM, a koff of 0.000548 s⁻¹ and an association rate constant (kon) of 4.3e+06 M⁻¹ s⁻¹.

As for B4, the Kd is 0.0831 nM, the koff amounted to 0.000226 s⁻¹ and the kon came out at 2.71e+06 M⁻¹ s⁻¹.

B5 showed a dissociation constant (Kd) of 0.192 nM, a koff of 0.00043 s⁻¹ and a kon of 2.24e+06 M⁻¹ s⁻¹.

In turn, B6 showed a Kd of 0.132 nM, a koff of 0.000282 s⁻¹ and a kon of 2.14e+06 M⁻¹ s⁻¹.

A further assay deals with T3, human ROR1 (human, UniProt Q01973 30-403, limits assumed).
T3 construct: also called human ROR1 protein
T3 sequence (Q01973 30-403 limits assumed): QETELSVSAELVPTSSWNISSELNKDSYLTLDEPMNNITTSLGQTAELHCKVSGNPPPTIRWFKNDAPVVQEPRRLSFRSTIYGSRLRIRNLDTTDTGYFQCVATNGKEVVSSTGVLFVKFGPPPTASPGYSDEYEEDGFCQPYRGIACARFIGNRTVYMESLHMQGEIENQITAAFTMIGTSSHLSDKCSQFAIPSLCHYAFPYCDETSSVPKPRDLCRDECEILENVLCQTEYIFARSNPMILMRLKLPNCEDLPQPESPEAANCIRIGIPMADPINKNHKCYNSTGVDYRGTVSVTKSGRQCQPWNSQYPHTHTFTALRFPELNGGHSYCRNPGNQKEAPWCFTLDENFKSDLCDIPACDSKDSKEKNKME
Kind of assay: ELISA, IgG on coated human ROR1, OD450. As to the method:
(§2) A 96-well plate was coated at 4° C. for 16 hours with each of human ROR1 and mouse ROR1 proteins at a concentration of 2 μg/ml and then blocked using […]. […] After washing with PBST and distilled water, binding at room temperature for 1 hour using a goat-derived HRP-conjugated anti-human antibody (Invitrogen, 31482, Goat anti-Human IgG F(ab′)₂ Secondary Antibody, HRP) and then washing again using PBST and distilled water were performed. After color development by adding TMB substrate solution (Thermo Scientific, 34029, 1-Step™ Ultra TMB-ELISA Substrate Solution), the color reaction was stopped with stop solution (Invitrogen, SS04, ELISA Stop Solution), and the absorbance was measured at OD 450 nm. It was confirmed that the anti-ROR1 antibody of the present invention and the modified antibody thereof with improved biological and physical properties […] to human ROR1 and mouse ROR1 (FIG. 2).
Consider B2, for which the “EC50 (read off the curve)” value is about 0.5 nM.

For the molecule B3, the “EC50 (read off the curve)” value was about 0.5 nM.

With B4, the half-maximal effective concentration (EC50 (read off the curve)) was about 0.5 nM.

Consider B5, for which the “EC50 (read off the curve)” value was about 0.5 nM.

Consider B6, for which the “EC50 (read off the curve)” value is about 0.5 nM.

The target in the next assay is T4, FZD+KRD (human, UniProt Q01973).
T4 construct: frizzled plus kringle domains, His tag; also called FK domain; human ROR1-frizzled-kringle domain
T4 sequence (Q01973 165-395 limits assumed): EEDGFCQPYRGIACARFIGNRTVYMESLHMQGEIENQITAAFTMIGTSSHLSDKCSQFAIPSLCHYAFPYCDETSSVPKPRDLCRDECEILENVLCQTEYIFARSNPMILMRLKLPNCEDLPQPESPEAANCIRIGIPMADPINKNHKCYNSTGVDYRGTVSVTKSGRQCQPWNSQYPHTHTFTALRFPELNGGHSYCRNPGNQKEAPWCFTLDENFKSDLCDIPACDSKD
The assay can be described thus: scFv ELISA on coated domain, anti-HA-HRP, OD450. On the procedure:
(§3) Thereafter, the plate was treated with each scFv and reacted for 2 hours, followed by washing four times using PBST and distilled water. After binding at room temperature for 1 hour using an HRP-conjugated anti-HA antibody (Roche, 12013819001, Anti-HA-Peroxidase, High Affinity) capable of binding to the HA tag, washing was performed six times using PBST and distilled water. After color development by adding TMB substrate solution (Thermo Scientific, 34029, 1-Step™ Ultra TMB-ELISA Substrate Solution), the color reaction was stopped with stop solution (Invitrogen, SS04, ELISA Stop Solution), and the absorbance was measured at OD 450 nm. The scFv binding to each domain was analyzed through ELISA.
As to B7, the binding result is listed as “no binding”.

Take B8: the binding result is “no binding”.

Turning to B9, the binding result was “no binding”.

As for B10, the binding result is reported as “no binding”.

Regarding B11, the binding result is “no binding”.

In the next assay the target is T5, FZD (human, UniProt Q01973).
T5 construct: frizzled domain, His tag; also called Frizzled domain; human ROR1-frizzled domain
T5 sequence (Q01973 165-305 limits assumed): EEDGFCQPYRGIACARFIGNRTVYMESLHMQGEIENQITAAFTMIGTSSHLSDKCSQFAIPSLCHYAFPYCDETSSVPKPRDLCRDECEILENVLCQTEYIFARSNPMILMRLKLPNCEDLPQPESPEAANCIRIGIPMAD
The assay can be described thus: scFv ELISA on coated domain, anti-HA-HRP, OD450. As to the method:
as §3
For the molecule B7, the binding result is recorded as “no binding”.

Regarding B8, the binding result was “no binding”.

In the case of B9, the binding result is reported as “no binding”.

As for B10, the binding result is recorded as “no binding”.

In the case of B11, the binding result is recorded as “no binding”.

The target in another assay is T1, Ig-like. The assay can be described thus: scFv ELISA on coated domain, anti-HA-HRP, OD450. On the procedure:
as §3
For the molecule B7, the binding result is “no binding”.

For B8, the binding result is reported as “no binding”.

Regarding B10, the binding result is listed as “binds”.

For B11, the binding result is recorded as “binds”.

In the next assay the target is T2, mouse ROR1. The assay can be described thus: ELISA, IgG on coated mouse ROR1, OD450. As to the method: as §2
As to B2, the “EC50 (read off the curve)” value was about 0.3 nM.

As to B3, the “EC50 (read off the curve)” value was about 0.3 nM.

For the molecule B4, the “EC50 (read off the curve)” value is about 0.3 nM.

Regarding B5, the “EC50 (read off the curve)” value was about 0.3 nM.

Consider B6, for which the “EC50 (read off the curve)” value is about 0.3 nM.

A further assay concerns the target ROR1 expressed on cell surface (Jeko-1 cell line, AMB-LC-0003T and AMB-LC-0002T patient-derived lung cancer … (human, UniProt Q01973 30-937)). The assay can be described thus: cell-based or functional assay.
On to B12, for which the “Fold Change of IC50, AMB-LC-0002T/AMB-LC-0003T” value amounted to 15 fold; the “IC50 (nM), spheroid volume after 6 days of treatment, AMB-LC-0003T (high ROR1 expression)” value is 10.6 nM; the “IC50 (nM), spheroid volume, AMB-LC-0002T (very low ROR1 expression)” value stood at 160 nM.

Regarding B13, the “Fold Change of IC50, AMB-LC-0002T/AMB-LC-0003T” value was determined as 4.8 fold; the “IC50 (nM), spheroid volume after 6 days of treatment, AMB-LC-0003T (high ROR1 expression)” value worked out at 34.6 nM; the “IC50 (nM), spheroid volume, AMB-LC-0002T (very low ROR1 expression)” value came out at 165 nM.

The target in the next assay is T3, human ROR1. Kind of assay: SPR (Biacore 3000), human ROR1 on CM5 chip, IgG injected, 1:1 Langmuir. On the procedure:
as §1
For orientation: Surface plasmon resonance follows binding to a sensor surface in real time, without labels.
B2 came in with a dissociation constant Kd of 0.00748 nM, a koff of 1.89e-05 s⁻¹ and a kon of 2.53e+06 M⁻¹ s⁻¹.

On to B3, for which binding was characterised by a dissociation constant (Kd) of 0.0262 nM, the koff was 7.95e-05 s⁻¹ and the kon stood at 3.03e+06 M⁻¹ s⁻¹.

In turn, B4 showed a Kd of 0.0152 nM, a koff of 4.08e-05 s⁻¹ and a kon of 2.66e+06 M⁻¹ s⁻¹.

As to B5, the Kd was determined as 0.033 nM, the dissociation rate constant (koff) amounted to 7.22e-05 s⁻¹ and the kon was determined as 2.19e+06 M⁻¹ s⁻¹.

In turn, B6 displayed a Kd of 0.0213 nM, a koff of 4.34e-05 s⁻¹ and a kon of 2.04e+06 M⁻¹ s⁻¹.

By Kd is commonly meant the equilibrium constant for the complex coming apart. The koff is the rate constant with which the complex falls apart. Lower therefore signals slow dissociation. For orientation: kon means the rate constant with which the complex forms. Read a low kon as slower complex formation. For orientation: EC50 (read off the curve) means the concentration at which the effect is half-maximal.
